Measurements: publication PMC4877045

Target: cleaved human TNFα (human)
Assay: SEC; SEC-HPLC on an analytic TSK G3000SWXL column, PBS mobile phase, 1 ml/min, OD280; molecular weight estimated from retention time against a protein size standard; self-association (trimer)

For cleaved human TNFα (ligand), the stoichiometry N was 3.
